Experimental data published in patent US20120253008A1 (Ablynx, published 2012).

target: T1, cynomolgus monkey serum albumin (cynomolgus monkey, UniProt A2V9Z4 25-608); experiment: SPR, BIAcore 3000, CSA on CM5 chip
T1 construct: amine-coupled to a CM5 chip; also called CSA; cynoSA
Experimental: (§1) For this purpose, binding to HSA and CSA was assessed in BIAcore™ 3000, by injecting concentration series of the fusion proteins ranging from 2 μM to 200 nM on a CM5 chip coated with ˜3000 RU HSA or CSA. Coating of the chip (CM5) was performed by amine coupling using NHS/EDC for activation and ethanolamine for deactivation (Biacore amine coupling kit). HBS-EP was used as flow buffer at a rate of […]. 90 μl of sample was injected for 120 s.

T1 sequence (A2V9Z4 25-608 limits assumed): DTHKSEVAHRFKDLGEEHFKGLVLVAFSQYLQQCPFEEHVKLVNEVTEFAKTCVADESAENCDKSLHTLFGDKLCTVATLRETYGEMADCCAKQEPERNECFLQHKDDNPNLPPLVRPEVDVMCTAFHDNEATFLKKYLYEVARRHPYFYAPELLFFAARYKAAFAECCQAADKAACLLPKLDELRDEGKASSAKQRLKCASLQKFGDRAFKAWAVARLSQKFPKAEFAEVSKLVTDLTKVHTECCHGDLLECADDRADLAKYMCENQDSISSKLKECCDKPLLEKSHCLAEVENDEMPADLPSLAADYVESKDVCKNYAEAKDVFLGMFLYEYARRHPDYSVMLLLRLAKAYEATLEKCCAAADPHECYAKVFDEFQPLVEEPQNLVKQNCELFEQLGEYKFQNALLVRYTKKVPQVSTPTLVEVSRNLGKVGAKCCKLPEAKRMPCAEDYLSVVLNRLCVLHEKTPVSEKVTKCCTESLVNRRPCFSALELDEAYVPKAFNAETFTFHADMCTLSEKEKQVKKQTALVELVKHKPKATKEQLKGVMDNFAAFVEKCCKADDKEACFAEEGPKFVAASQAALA

Row | Kd | kon | Binder
1 | 2110 nM | 4010 M⁻¹ s⁻¹ | 2D3-9GS-56E4-MycHis (other) EVQLVESGGSLVQPGGSLRLSCAASGFTFDDYAMSWVRQVPGKGLEWVSSINWSGTHTDYADSVKGRFTISRNNANNTLYLQMNSLKSEDTAVYYCAKNWRDAGTTWFEKSGSAGQGTQVTVSSGGGGSGGGSAAARYWDYDVFGGGTPVGGAAAEQKLISEEDLNGAAHHHHHH
2 | 1040 nM | 4850 M⁻¹ s⁻¹ | 2D3-9GS-59F2-MycHis (other) EVQLVESGGSLVQPGGSLRLSCAASGFTFDDYAMSWVRQVPGKGLEWVSSINWSGTHTDYADSVKGRFTISRNNANNTLYLQMNSLKSEDTAVYYCAKNWRDAGTTWFEKSGSAGQGTQVTVSSGGGGSGGGSAAARYWDFDVFGGGTPVGGAAAEQKLISEEDLNGAAHHHHHH
3 | 1280 nM | 3450 M⁻¹ s⁻¹ | 2D3-9GS-59H12-MycHis (other) EVQLVESGGSLVQPGGSLRLSCAASGFTFDDYAMSWVRQVPGKGLEWVSSINWSGTHTDYADSVKGRFTISRNNANNTLYLQMNSLKSEDTAVYYCAKNWRDAGTTWFEKSGSAGQGTQVTVSSGGGGSGGGSAAARSWDFDVFGGGTPVGGAAAEQKLISEEDLNGAAHHHHHH
4 | 775 nM | 2750 M⁻¹ s⁻¹ | 2D3-9GS-59C2-MycHis (other) EVQLVESGGSLVQPGGSLRLSCAASGFTFDDYAMSWVRQVPGKGLEWVSSINWSGTHTDYADSVKGRFTISRNNANNTLYLQMNSLKSEDTAVYYCAKNWRDAGTTWFEKSGSAGQGTQVTVSSGGGGSGGGSAAARDWDFDVFGGGTPVGGAAAEQKLISEEDLNGAAHHHHHH

target: T2, human serum albumin (human, UniProt P02768 25-609); experiment: SPR, BIAcore 3000, HSA on CM5 chip
T2 construct: also called HSA
Experimental: as §1

Row | Kd | koff | kon | Binder
5 | 991 nM | 0.00497 s⁻¹ | 5020 M⁻¹ s⁻¹ | 2D3-9GS-56E4-MycHis (other) EVQLVESGGSLVQPGGSLRLSCAASGFTFDDYAMSWVRQVPGKGLEWVSSINWSGTHTDYADSVKGRFTISRNNANNTLYLQMNSLKSEDTAVYYCAKNWRDAGTTWFEKSGSAGQGTQVTVSSGGGGSGGGSAAARYWDYDVFGGGTPVGGAAAEQKLISEEDLNGAAHHHHHH
6 | 571 nM | 0.00351 s⁻¹ | 6140 M⁻¹ s⁻¹ | 2D3-9GS-59F2-MycHis (other) EVQLVESGGSLVQPGGSLRLSCAASGFTFDDYAMSWVRQVPGKGLEWVSSINWSGTHTDYADSVKGRFTISRNNANNTLYLQMNSLKSEDTAVYYCAKNWRDAGTTWFEKSGSAGQGTQVTVSSGGGGSGGGSAAARYWDFDVFGGGTPVGGAAAEQKLISEEDLNGAAHHHHHH
7 | 663 nM | 0.00304 s⁻¹ | 4590 M⁻¹ s⁻¹ | 2D3-9GS-59H12-MycHis (other) EVQLVESGGSLVQPGGSLRLSCAASGFTFDDYAMSWVRQVPGKGLEWVSSINWSGTHTDYADSVKGRFTISRNNANNTLYLQMNSLKSEDTAVYYCAKNWRDAGTTWFEKSGSAGQGTQVTVSSGGGGSGGGSAAARSWDFDVFGGGTPVGGAAAEQKLISEEDLNGAAHHHHHH
8 | 481 nM | 0.00179 s⁻¹ | 3730 M⁻¹ s⁻¹ | 2D3-9GS-59C2-MycHis (other) EVQLVESGGSLVQPGGSLRLSCAASGFTFDDYAMSWVRQVPGKGLEWVSSINWSGTHTDYADSVKGRFTISRNNANNTLYLQMNSLKSEDTAVYYCAKNWRDAGTTWFEKSGSAGQGTQVTVSSGGGGSGGGSAAARDWDFDVFGGGTPVGGAAAEQKLISEEDLNGAAHHHHHH

target: T1, cynomolgus monkey serum albumin; experiment: SPR, BIAcore 3000, CSA on CM5 chip; remark: another data set of the same source
Experimental: as §1, with “The” for “For this purpose,”, “binding” for “binding to HSA and CSA”, “determined” for “assessed”

Row | Kd | kon | Binder
9 | 495 nM | 17100 M⁻¹ s⁻¹ | 2D3-9GS-56E4 (other, untagged; Nanobody 2D3, 9GS linker, 56E4 without the two N-terminal alanines; also called 2D3-9GS-EXP56E4) EVQLVESGGSLVQPGGSLRLSCAASGFTFDDYAMSWVRQVPGKGLEWVSSINWSGTHTDYADSVKGRFTISRNNANNTLYLQMNSLKSEDTAVYYCAKNWRDAGTTWFEKSGSAGQGTQVTVSSGGGGSGGGSRYWDYDVFGGGTPVGG
10 | 276 nM | 8980 M⁻¹ s⁻¹ | 2D3-9GS-59C2 (other, untagged; also called 2D3-9GS-EXP59C2; 2D3-EXP59C2) EVQLVESGGSLVQPGGSLRLSCAASGFTFDDYAMSWVRQVPGKGLEWVSSINWSGTHTDYADSVKGRFTISRNNANNTLYLQMNSLKSEDTAVYYCAKNWRDAGTTWFEKSGSAGQGTQVTVSSGGGGSGGGSRDWDFDVFGGGTPVGG

target: T2, human serum albumin; experiment: phage ELISA and/or solution binding competition ELISA on HSA

Row | binding result | Binder
11 | binds | AARYYDYDVFGGGTVVGE [PMP54B2]
12 | binds | AAFYMDYDVFGGGTPRGQ [PMP56A4]
13 | binds | AATYLDYDVFGGGTPDGR [PMP54E3]

target: T2, human serum albumin; experiment: phage ELISA, phage titration on coated HSA, near-infrared fluorescence
Experimental: (§2) 5-fold serial dilutions of phage clones (starting from ˜5×10¹¹ phage) were added to 96-well Nunc Maxisorp plates coated with human serum albumin (2 μg/ml in PBS, overnight at 4° C.; plates were blocked with Superblock T20 (Pierce) for 1 h at room temperature). […] The amount of IRDye bound was measured on Odyssey (LI-COR Biosciences). The dilution of phage was plotted against measured near-infrared fluorescence intensity (FIG. 2).
(§3) After respectively three and four selection rounds, monoclonal phage were screened for binding on HSA, in the manner described in Example 2. Clones that bind to HSA (FIGS. 7A to 7C and Table V) were screened in phage competition ELISA, in the manner described in Example 5. The ratio of phage binding was calculated by the following equation: fluorescence signal of well with 2 μM competitor/fluorescence signal of well with no competitor (Table VI).

Row | Binder | binding result
14 | AARWWDYDVFGGGTPVGG [59A5] | binds
15 | AARYWDYDVFGGGTPVDG [60E6] | binds
16 | AARYWDYDVFGGGSQVGG [60F1] | binds
17 | AARYWDWDVFGGGTPVGG [59C8] | binds

The remaining lines, values ahead:

Row | binding result | Binder
18 | binds | AARYWDFDVFGGGSPVGG [59H10]
19 | binds | AARYWDFDAFGGGTPVGG [59B3]
20 | binds | AARFWDYDVFGGGTPVGG [59B2]
21 | binds | AARYWDYDVFGGGSPVGG [60G5]

target: T2, human serum albumin; experiment: phage competition ELISA: phage pre-incubated with 2 µM HSA, captured on coated HSA
Experimental: Unbound phage was captured by transferring 100 μl of the well mixture to the HSA coated Maxisorp plate and incubating at room temperature for 30 minutes. The plate with captured phage was washed with PBS-0.05% Tween 20 five times. Bound phages were detected with anti-M13 and goat-anti mouse IRDye conjugate. The amount of IRDye bound was measured on Odyssey (LI-COR Biosciences). The ratio of phage binding was calculated by the following equation: fluorescence signal of well with competitor/fluorescence signal of well with no competitor (Table III).
as §3

Row | Binder | Ratio 2 µM/0 µM HSA
22 | AARSWDFDVFGGGTPVGG [59H12] | 0.87
23 | AARYWDFDVFGGGTPVGG [59F2] | 0.69

The next lines start with the values.

Row | Ratio 2 µM/0 µM HSA | Binder
24 | 0.91 | AARDWDFDVFGGGTPVGG [59C2]
25 | 0.82 | AARYWDYDVFGGGTPVGG (also called EXP56E4) [PMP56E4]

target: T2, human serum albumin; experiment: phage ELISA, 5-fold phage dilutions on coated HSA, anti-M13 detection, near-infrared fluorescence
Experimental: as §2

Row | binding result | Binder
26 | binds | AAPYRDYDVFGGGTPRGE [PMP56F2]
27 | binds | AASYSDYDVFGGGTDFGP [17D12]
28 | binds | AAYYYDYDVFGGGTPGGE [PMP56E2]

target: T3, von Willebrand factor (human, UniProt P04275 764-2813); experiment: inhibition ELISA: ristocetin-induced binding of plasma vWF to fixed human platelets (glycoprotein Ib), bound vWF detected with anti-VWF-HRP
T3 construct: vWF of the human plasma in which the compounds were diluted; multimeric; also called vWF; VWF

Row | IC50 (read off the curve) | binding result | Binder
29 | ~20 nM | – | 12A2 sv1-AAA-12A2 sv1-9GS-59C2-9GS-59C2 (VHH, also called vWF-0056; VWF0056) DVQLVESGGGLVQPGGSLRLSCAASGRTFSYNPMGWFRQAPGKGRELVAAISRTGGSTYYPESVEGRFTISRDNAKRTVYLQMNSLRAEDTAVYYCAAAGVRAEQGRVRTLPSEYTFWGQGTQVTVSSAAAEVQLVESGGGLVQPGGSLRLSCAASGRTFSYNPMGWFRQAPGKGRELVAAISRTGGSTYYPESVEGRFTISRDNAKRTVYLQMNSLRAEDTAVYYCAAAGVRAEQGRVRTLPSEYTFWGQGTQVTVSSGGGGSGGGSRDWDFDVFGGGTPVGGGGGGSGGGSRDWDFDVFGGGTPVGG
30 | – | binds | 12A2 sv1-9GS-59C2-9GS-12A2 sv1 (VHH, also called vWF-0053; vWF 0053) DVQLVESGGGLVQPGGSLRLSCAASGRTFSYNPMGWFRQAPGKGRELVAAISRTGGSTYYPESVEGRFTISRDNAKRTVYLQMNSLRAEDTAVYYCAAAGVRAEQGRVRTLPSEYTFWGQGTQVTVSSGGGGSGGGSRDWDFDVFGGGTPVGGGGGGSGGGSEVQLVESGGGLVQPGGSLRLSCAASGRTFSYNPMGWFRQAPGKGRELVAAISRTGGSTYYPESVEGRFTISRDNAKRTVYLQMNSLRAEDTAVYYCAAAGVRAEQGRVRTLPSEYTFWGQGTQVTVSS
31 | – | binds | vWF0054 (VHH, also called 12A2 sv1-9GS-59C2-9GS-59C2-9GS-12A2 sv1) single chain fusion protein: DVQLVESGGGLVQPGGSLRLSCAASGRTFSYNPMGWFRQAPGKGRELVAAISRTGGSTYYPESVEGRFTISRDNAKRTVYLQMNSLRAEDTAVYYCAAAGVRAEQGRVRTLPSEYTFWGQGTQVTVSSGGGGSGGGSRDWDFDVFGGGTPVGGGGGGSGGGSRDWDFDVFGGGTPVGGGGGGSGGGSEVQLVESGGGLVQPGGSLRLSCAASGRTFSYNPMGWFRQAPGKGRELVAAISRTGGSTYYPESVEGRFTISRDNAKRTVYLQMNSLRAEDTAVYYCAAAGVRAEQGRVRTLPSEYTFWGQGTQVTVSS
32 | ~10 nM | – | 12A2_sv1-AAA-12A2_sv1 (VHH, also called vWF-001; vWF-0001) DVQLVESGGGLVQPGGSLRLSCAASGRTFSYNPMGWFRQAPGKGRELVAAISRTGGSTYYPESVEGRFTISRDNAKRTVYLQMNSLRAEDTAVYYCAAAGVRAEQGRVRTLPSEYTFWGQGTQVTVSSAAAEVQLVESGGGLVQPGGSLRLSCAASGRTFSYNPMGWFRQAPGKGRELVAAISRTGGSTYYPESVEGRFTISRDNAKRTVYLQMNSLRAEDTAVYYCAAAGVRAEQGRVRTLPSEYTFWGQGTQVTVSS
